From PMC9322661

Target: Taxol-stabilized microtubules (porcine brain tubulin) (porcine)
Test: TIRF single-molecule motility assay

Chain of Taxol-stabilized microtubules (porcine brain tubulin) (porcine) (P02550 whole entry, chain 1 of 2): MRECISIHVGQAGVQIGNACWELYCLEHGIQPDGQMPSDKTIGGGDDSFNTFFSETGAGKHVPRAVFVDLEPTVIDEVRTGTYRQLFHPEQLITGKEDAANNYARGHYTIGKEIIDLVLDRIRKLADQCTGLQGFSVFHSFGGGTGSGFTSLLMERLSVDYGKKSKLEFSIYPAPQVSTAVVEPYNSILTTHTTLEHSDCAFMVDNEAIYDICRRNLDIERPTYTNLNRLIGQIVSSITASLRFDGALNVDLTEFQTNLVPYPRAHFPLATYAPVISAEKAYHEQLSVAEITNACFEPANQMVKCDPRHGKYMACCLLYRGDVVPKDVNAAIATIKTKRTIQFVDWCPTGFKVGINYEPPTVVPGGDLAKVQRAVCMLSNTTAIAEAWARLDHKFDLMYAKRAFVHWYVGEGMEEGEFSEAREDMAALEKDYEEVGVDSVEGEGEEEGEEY
Chain of Taxol-stabilized microtubules (porcine brain tubulin) (porcine) (P02554 whole entry, chain 2 of 2, further chain): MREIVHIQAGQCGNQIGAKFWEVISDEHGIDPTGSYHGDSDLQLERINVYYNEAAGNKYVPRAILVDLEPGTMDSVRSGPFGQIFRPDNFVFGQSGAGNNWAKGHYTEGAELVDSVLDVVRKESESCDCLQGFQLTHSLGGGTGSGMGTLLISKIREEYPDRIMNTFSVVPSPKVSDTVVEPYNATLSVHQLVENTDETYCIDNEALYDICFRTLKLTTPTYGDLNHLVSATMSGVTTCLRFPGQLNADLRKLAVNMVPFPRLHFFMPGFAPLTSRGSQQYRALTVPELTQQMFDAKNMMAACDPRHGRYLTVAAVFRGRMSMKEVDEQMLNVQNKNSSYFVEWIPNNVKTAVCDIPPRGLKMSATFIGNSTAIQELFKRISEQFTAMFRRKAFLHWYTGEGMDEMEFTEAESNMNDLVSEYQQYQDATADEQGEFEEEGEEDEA

full-length KIF5A(∆exon27)::mSca (from UniProt Q12840 1-1032) (natural protein)
landing rate (motors/μm/s/μM): 8.3
